{
  "source": "ChEMBL document CHEMBL1250451",
  "about": "“Mechanistic insights into a Ca2+-dependent family of alpha-mannosidases in a human gut symbiont” (Nat Chem Biol, 2010)",
  "proteins": {"B1": {"name": "Alpha-1,2-mannosidase (BT_3530) (Bacteroides thetaiotaomicron), Q8A1X8 (protein)", "chain": "MTPSVAQNTKYVNLFIGTSGDNGQVAPGAAAPFGMVCVCPDNDPRSHAGYDYAVTKVSGISVNRLSGVGCSGGGGNLRIRPVAPSQELHIKKSREKATPGYYSTAFTNGIKTELTATNAMAVERYKFPRSLSAALWIDFASTFEDVATCHYKRISETCIEGYVQAKNVCGHGCYKLYFSLNTSQPFQLEEQKETTACLTFGKKVRSVEVRIGLSALSSELASWECARWEKMDFEDVKSRTADQWEKQLSAIDVKGGKKDDRVIFYTSLYRTYLSPADVSSPDGAYLGTDGKVYISEDFRYYSNWSLWDTFRTKFPLLVLTEPAKMRDMATSLIHLYATGKKDWSTGFESTPTVRTEHAVILLLDAYRKGITNLDFRKGYAGMKQEMERLPMRSPDQKMESAYDLWAMAKIAEIIGEKADSEQYRQRSVSLFEETWKKEFMNVTPAFEVMKNNGLYQGTRWQYRWAAPQYIDKMIEWVGQDSLRLQLTYFFDHHLYNQGNEPDIHVPYLFNRLGAPEKTQQIVRSLMTEPMIHKYGGNSEFKTPYLGKAFKNAPEGYSPEMDEDDGTMSAWYVFGAMGFYPLLVGDEYYDLTSPLFDRVLLRLTNGNVLTIQTEGRKKKDAPIKSIHFNGKKIADYRISHNELIKGGELIYNYK"}, "B2": {"name": "Alpha-1,2-mannosidase (BT_2199) (Bacteroides thetaiotaomicron), Q8A5N9 (protein)", "chain": "MVTRLFFLSICFPFLLTSCQQSKKTVEFVDYVNPLMGTESTFAFSHGNTYPAVAVPWGMNFWSPQTGENGSGWMYTYTDSLMRGFRQTHQPSPWINDYGTFSIMPLAGELKMSHKERLVPFSHQQEKATPYNYSVTFNNGLQTSLSATSRGAVFEVSFPEKEDQYVVVDAYNGGSSITIEPEKRLVKGATRYNNGGVPDNFANYFMMEFSHPVIEYGTYNGDTLLHHQTDVAADYTCAYLKFDVPAGEKLTIRTASSFISPEQAAINFNREVADADVQLISGKAREQWNNYLGRVEAEGGTDEQLRTFYSCLYRTLLFPREFYEFDSQGNPVYYSPYDGNVHDGYMYTDNGFWDTFRAVHPLFTLLYPEVSERVTQSIINAYNESGFMPEWASPGHRGCMIGNNSVSLLVDAWMKGIQTVDAEKALEAMIHQTQARHAEIASVGRDGFEYYDKLGYVPYPEVPEATAKTLEYAYADWCIARFAESLGKQDIADQYYQKAPNYRNLYYPEHGFMWTKDAKGNWRDRFDATEWGGPFTEGSSWHWTWSVFHDPEGLSELMGGHEPMIARLDSMFVAPNTYNYGTYGFVIHEIAEMVALNMGQYAHGNQPVQHAIYLYDYIGQPWKTQYHLRNVMDKLYNSGSKGYCGDEDNGQTSAWYVFSAMGFYPVCPGMPEYAIGSPLFKKVTLHLPEGKNFVVSAADNAADRPYIRKALLNGQEFTRNYLTHDELKQGGELNLSMDSVPNQQRGTQPADFPYSYSK"}, "B3": {"name": "Alpha-1,2-mannosidase (BT_3784) (Bacteroides thetaiotaomicron), Q8A182 (protein)", "chain": "MKTHFSFKHLLFIGGAVLYSMQISAVKNPVDYVSTLVGTQSKFELSTGNTYPATALPWGMNFWTPQTGKMGDGWAYTYNADKIRGFKQTHQPSPWMNDYGQFSIMPITGGLVFDQDQRASWFSHKAEVAKPYYYKVYLADHDVTTELVPTERAAMFRFTYPETKNAYVVIDAFDKGSYVKVIPEENKIIGYSTKNSGGVPENFKNYFVIQFDKPFTFTSGVKENNILPNETEVQGNHTGAIIGFATQKGEIVHARVASSFISYEQAELNLKELGKDSFDQLVTKGKDIWNREMSKVDVEDDNIDNLRTFYSCLYRSMLFPRSFYEIDAKGQVVHYSPYNGKVLPGYMFTDTGFWDTFRCLFPFLNLMYPSMNQKMQEGLVNAYLESGFLPEWASPGHRDCMVGNNSASVVADAYIKGLRGYDIETLWEALKHDANAHLRGTASGRLAYDAYNKLGYVPNNIGIGQNVARTLEYAYNDWTIYTLGKKLGKPASEIDIFKQRALNYKNVYHPKRKLMVGKDDKGVFNPKFDAVDWSGEFCEGNSWHWSFCVFHDPQGLIDLMGGKKEFNNMMDSVFVIPGKQGMESRGMIHEMREMQVMNMGQYAHGNQPIQHMVYLYNYSGEPWKAQHWVREIMDKLYTAGPDGYCGDEDNGQTSAWYVFSALGFYPVCPGTDQYILGTPLFKSAKLHLENGKTVTIKASNNNTDNRYVKDMKVNGKAFTRNYLTHDQLLKGANIQYQMSPTPNKQRGTTEKDIPYSLSFE"}},
  "type_in_all_cases": "protein assay",
  "key": {"[1]": {"substrate": "OC[C@H]1O[C@H](O[C@H]2[C@H](O)[C@H](O)[C@@H](O)O[C@@H]2CO)[C@@H](O)[C@@H](O)[C@@H]1O", "test": "(§1) Activity of Bacteroides thetaiotaomicron GH92 alpha-mannosidase GH92 alpha-mannosidase 3530 assessed as mannose release after 16 hrs by HPLC; call rule not given here"}, "[2]": {"substrate": "O=[N+]([O-])c1ccc(O[C@H]2O[C@H](CO)[C@@H](O)[C@H](O)[C@@H]2O)cc1", "test": "as §1"}, "[3]": {"substrate": "OC[C@H]1O[C@H](O[C@H]2[C@H](O)[C@H](O)[C@@H](O)O[C@@H]2CO)[C@@H](O)[C@@H](O)[C@@H]1O", "test": "(§2) Ratio of Kcat to Km for Bacteroides thetaiotaomicron GH92 alpha-mannosidase GH92 alpha-mannosidase 3530 assessed as mannose release after 16 hrs by HPLC"}, "[4]": {"substrate": "O=[N+]([O-])c1ccc(O[C@H]2O[C@H](CO)[C@@H](O)[C@H](O)[C@@H]2O)cc1", "test": "as §2"}, "[5]": {"substrate": "O=[N+]([O-])c1ccc(O[C@H]2O[C@H](CO)[C@@H](O)[C@H](O)[C@@H]2O)cc1", "test": "(§3) Ratio of Kcat to Km for Bacteroides thetaiotaomicron GH92 alpha-mannosidase GH92 alpha-mannosidase 2199 assessed as mannose release after 16 hrs by HPLC"}, "[6]": {"substrate": "OC[C@H]1O[C@H](O[C@H]2[C@@H](O)[C@H](O)[C@@H](CO)O[C@@H]2O)[C@@H](O)[C@@H](O)[C@@H]1O", "test": "as §3"}, "[7]": {"substrate": "O=[N+]([O-])c1ccc(O[C@H]2O[C@H](CO)[C@@H](O)[C@H](O)[C@@H]2O)cc1", "test": "(§4) Activity of Bacteroides thetaiotaomicron GH92 alpha-mannosidase GH92 alpha-mannosidase 2199 assessed as mannose release after 16 hrs by HPLC"}, "[8]": {"substrate": "OC[C@H]1O[C@H](O[C@H]2[C@@H](O)[C@H](O)[C@@H](CO)O[C@@H]2O)[C@@H](O)[C@@H](O)[C@@H]1O", "test": "as §4"}, "[9]": {"substrate": "O=[N+]([O-])c1ccc(O[C@H]2O[C@H](CO)[C@@H](O)[C@H](O)[C@@H]2O)cc1", "test": "(§5) Ratio of Kcat to Km for Bacteroides thetaiotaomicron GH92 alpha-mannosidase GH92 alpha-mannosidase 3784 assessed as mannose release after 16 hrs by HPLC"}, "[10]": {"substrate": "OC[C@H]1O[C@H](O[C@H]2[C@@H](O)[C@H](O)[C@@H](CO)O[C@@H]2O)[C@@H](O)[C@@H](O)[C@@H]1O", "test": "as §5"}, "[11]": {"substrate": "O=[N+]([O-])c1ccc(O[C@H]2O[C@H](CO)[C@@H](O)[C@H](O)[C@@H]2O)cc1", "test": "(§6) Activity of Bacteroides thetaiotaomicron GH92 alpha-mannosidase GH92 alpha-mannosidase 3784 assessed as mannose release after 16 hrs by HPLC"}, "[12]": {"substrate": "OC[C@H]1O[C@H](O[C@H]2[C@@H](O)[C@H](O)[C@@H](CO)O[C@@H]2O)[C@@H](O)[C@@H](O)[C@@H]1O", "test": "as §6"}},
  "data": [
    {"protein": "B1", "values": [
      {"measurement": "Km", "setting": "[1]", "result": 0.61, "unit": "mM"},
      {"measurement": "kcat", "setting": "[1]", "result": 0.001, "unit": "s⁻¹"},
      {"measurement": "Km", "setting": "[2]", "result": "Not Active"},
      {"measurement": "kcat", "setting": "[2]", "result": "Not Active"},
      {"measurement": "kcat/Km", "setting": "[3]", "result": 1.58, "unit": "M⁻¹ s⁻¹"},
      {"measurement": "kcat/Km", "setting": "[4]", "result": "Not Active"}
    ]},
    {"protein": "B2", "values": [
      {"measurement": "kcat/Km", "setting": "[5]", "result": 14, "unit": "M⁻¹ s⁻¹"},
      {"measurement": "kcat/Km", "setting": "[6]", "result": 60000, "unit": "M⁻¹ s⁻¹"},
      {"measurement": "Km", "setting": "[7]", "result": 7.5, "unit": "mM"},
      {"measurement": "kcat", "setting": "[7]", "result": 0.105, "unit": "s⁻¹"},
      {"measurement": "kcat", "setting": "[8]", "result": 40, "unit": "s⁻¹"}
    ]},
    {"protein": "B3", "values": [
      {"measurement": "kcat/Km", "setting": "[9]", "result": 11.5, "unit": "M⁻¹ s⁻¹"},
      {"measurement": "kcat/Km", "setting": "[10]", "result": 183, "unit": "M⁻¹ s⁻¹"},
      {"measurement": "Km", "setting": "[11]", "result": 6.9, "unit": "mM"},
      {"measurement": "kcat", "setting": "[11]", "result": 0.08, "unit": "s⁻¹"},
      {"measurement": "Km", "setting": "[12]", "result": 2.3, "unit": "mM"},
      {"measurement": "kcat", "setting": "[12]", "result": 0.45, "unit": "s⁻¹"}
    ]}
  ]
}
